Test results from publication PMC4682114.

Key:
[1] = target: Cy3 only labelled unmodified nucleosome (Cy3-L DNA, unlabelled histone octamer) (human) (UniProt P0C0S8); assay: other fluorescence titration; PIFE (protein-induced fluorescence enhancement) of Cy3 on the linker DNA of Cy3 only nucleosomes; 5 nM nucleosomes, 0-300 nM H1 and/or 0-1,000 nM Gal4, 10 mM Tris-HCl pH 8.0, 130 mM NaCl, 10% glycerol, 0.005% TWEEN20, 10 min at 20 C; Hill curve, S1/2
[2] = target: Cy3-Cy5 labelled H3K122ac nucleosome (Cy3-L DNA) (UniProt P0C0S8); assay: other fluorescence titration; FRET efficiency between Cy3 on the DNA and Cy5 on the histone octamer (reports DNA wrapping) against H1 concentration; 5 nM nucleosomes, 0-300 nM H1, 10 mM Tris-HCl pH 8.0, 130 mM NaCl, 10% glycerol, 0.005% TWEEN20, 10 min at 20 C; Hill curve, S1/2; points of aggregated nucleosomes excluded
[3] = target: Cy3-Cy5 labelled H3K56Q nucleosome (Cy3-L DNA) (human) (UniProt P0C0S8); assay: as above
[4] = target: Cy3-Cy5 labelled H3K56ac nucleosome (Cy3-L DNA) (UniProt P0C0S8); assay: as above
[5] = target: Cy3-Cy5 labelled unmodified nucleosome (Cy3-L DNA, Cy5 on H2A K119C) (human) (UniProt P0C0S8); assay: as above
Histone H1.0 (human) [6] = target: Histone H1.0 (human) (UniProt P07305); assay: FRET; conditions: FRET/PIFE/EMSA: 5 nM nucleosomes, 10 mM Tris-HCl pH 8.0, 130 mM NaCl, 10% glycerol, 0.005% Tween20, 10 min at 20 C, EMSA on 4% polyacrylamide, 0.3x TTE
Histone H1.0 (human) [7] = target: Histone H1.0 (human) (UniProt P07305); assay: PIFE; conditions: AmC6dT at position 43; unlabelled human octamer; FRET/PIFE/EMSA: 5 nM nucleosomes, 10 mM Tris-HCl pH 8.0, 130 mM NaCl, 10% glycerol, 0.005% Tween20, 10 min at 20 C; EMSA on 4% polyacrylamide, 0.3x TTE
Histone H1.2 (human) = Histone H1.2 (human) (UniProt P16403); assay: FRET; conditions: AmC6dT at position 43; human octamer H2A(K119C), H2B, H3(C110A), H4; FRET/PIFE/EMSA: 5 nM nucleosomes, 10 mM Tris-HCl pH 8.0, 130 mM NaCl, 10% glycerol, 0.005% Tween20, 10 min at 20 C; EMSA on 4% polyacrylamide, 0.3x TTE
Histone H1.x (human) = Histone H1.x (human) (UniProt Q92522); assay: FRET; conditions: AmC6dT at position 43; human octamer H2A(K119C), H2B, H3(C110A), H4; FRET/PIFE/EMSA: 5 nM nucleosomes, 10 mM Tris-HCl pH 8.0, 130 mM NaCl, 10% glycerol, 0.005% Tween20, 10 min at 20 C; EMSA on 4% polyacrylamide, 0.3x TTE

human linker histone H1.0 (from UniProt P07305 1-194) (natural protein)
S1/2 [1]: 13 nM
S1/2 [2]: 14 nM
S1/2 [3]: 15 nM
S1/2 [4]: 14 nM
S1/2 [5]: 9 nM

human linker histone H1.2, 6xHis tagged (from UniProt P16403 1-213) (natural protein)
S1/2 [5]: 6 nM

human linker histone H1.x, 6xHis tagged (from UniProt Q92522 1-213) (natural protein)
S1/2 [5]: 13 nM

CTGGAGACCGGAGGGCTGCCCTCCGGTCAATTGGTCGTAGACAGCTCTAGCACCGCTTAAACGCACGTACGCGCTGTCCCCCGCGTTTTAACCGCCAAGGGGATTACTCCCTAGTCTCCAGGCACGTGTCAGATATATACATCCTGTATAATGCATAGGGCAGTGAGTTGACGCTACAATCACGAATTCTGGATCCGATACGTAACGCGTCTGCAGCATGCG (double strand) [Linker-R nucleosome]
K half (Histone H1.0 (human) [6]; smaller FRET change, 5' AminoC6, human octamer): 11 nM

AAGCTTGTCGACGAATTCAGATATAAGGAGGACACTGGGACATGCATCGGCTGGAGACCGGAGGGCTGCCCTCCGGTCAATTGGTCGTAGACAGCTCTAGCACCGCTTAAACGCACGTACGCGCTGTCCCCCGCGTTTTAACCGCCAAGGGGATTACTCCCTAGTCTCCAGGCACGTGTCAGATATATACATCCTGT (double strand) [Linker-L nucleosome]
K half (Histone H1.0 (human) [6]; AmC6dT at position 43, human octamer): 12 nM

AAGCTTGTCGACGAATTCAGATATAAGGAGGACACTGGGACATGCATCGGCTGGAGACCGGAGGGCTGCCCTCCGGTCAATTGGTCGTAGACAGCTCTAGCACCGCTTAAACGCACGTACGCGCTGTCCCCCGCGTTTTAACCGCCAAGGGGATTACTCCCTAGTCTCCAGGCACGTGTCAGATATATACATCCTGTATAATGCATAGGGCAGTGAGTTGACGCTACAATCACGAATTCTGGATCCGATACGTAACGCGTCTGCAGCATGCG (double strand) [Cy3-L nucleosome, unmodified, Cy3 only]
K half (Histone H1.0 (human) [7]): 13 nM

AAGCTTGTCGACGAATTCAGATATAAGGAGGACACTGGGACATGCATCGGCTGGAGACCGGAGGGCTGCCCTCCGGTCAATTGGTCGTAGACAGCTCTAGCACCGCTTAAACGCACGTACGCGCTGTCCCCCGCGTTTTAACCGCCAAGGGGATTACTCCCTAGTCTCCAGGCACGTGTCAGATATATACATCCTGTATAATGCATAGGGCAGTGAGTTGACGCTACAATCACGAATTCTGGATCCGATACGTAACGCGTCTGCAGCATGCG (double strand) [Cy3-L nucleosome, unmodified, Cy5-H2A(K119C)]
K half (Histone H1.0 (human) [6]; AmC6dT at position 43, human octamer H2A(K119C), H2B, H3(C110A), H4): 9 nM
K half (Histone H1.2 (human)): 6 nM
K half (Histone H1.x (human)): 13 nM
